{
  "source": "the DeepSol protein solubility set",
  "data": [
    {"assay": "soluble on expression in E. coli; label from the status in PepcDB or PDB records", "values": [
      {"sequence": "MGSDKIHHHHHHMEGRINPENWKDIFSDTLYIITDPNGVTAVIPEETAKTASSEPVKAAPADIKPTPVTTATPALPKIPSIPTPASATPNQQPAPVAAATAVLKPAGKYSNGILILMHVSYTMTPAQQEMLGKIVKAVQLDYNECGVLQVSAPVSLKEIETLKPRIVLSFGLPTDAFEPRMTKDLYSIQKHNSTIMLLADSLAKLETTVALKSNLWNAMKEMFGIK", "soluble on expression in E. coli": "not soluble"},
      {"sequence": "MLKGQRTWVFANKPAIIATAAVGGPFEANGRLAEDFDLLHEDLWLGEESYEKAHRVLMEEAAFQAMEKAGLEKEKVQFLIAGDLINQMTPTSFAARTLGMPYLGVFGACSTSMEGLALSAFITNYGGADYILTGASSHNAAVEKQFRYPTEYGGQKPPTAQWTVTGAGVAIVSPKGDGPRVTAATIGRVVDMGLADPFNMGGAMAPAAVDTIEAHLRDMQIDASYYDLIVTGDLGRIGRQVSLDLLRQHGIDIDEECYQDCGLLIYRDGQPVLSGASGAACSAVVVYGHLIKRMRRGELKRILAVATGALLSPLSFQQNETIPCIAHAVAIEYGGEA", "soluble on expression in E. coli": "not soluble"},
      {"sequence": "MGSDKIHHHHHHMNAIQCETRTYEREYNTHDHSYGQMLFALHGAMEIQTPVYDTFQLEANFGLYLPPHVNHRFRAVARNEFIVVDIPARFLGDAVTTEQHVALDETWGALCHLFRGEAYQPASSQSLRPLVDYLTSKLAKKTLPASIHYMKQHFSEPLSLETLAAIEHYHPAYYSSWFKGYTGMSPSEYLQKLRVKAAKRLLGETTWSVARISIEVGYTHPSGLVRAFTKVEGMTPSAYRNTLH", "soluble on expression in E. coli": "not soluble"},
      {"sequence": "MRVGIKVLGCPKNEADCEVLAGVLREGGHEIVFDVKDADVVVLDTCAFIEDAKRESIDEIFSFVDAKDQYGYKLVVKGCLVQRYYEELKKEIPEVDQWIGVADPEEIANAIENGTDLVPDQPETVYRYRKRIDLEERPYAYVKISDGCDRGCTFCSIPSFKGSLRSRSIEDITREVEDLLKEGKKEIILVAQDTTSYGIDLYRKQALPDLLRRLNSLNGEFWIRVMYLHPDHLTEEIISAMLELDKVVKYFDVPVQHGSDKILKLMGRTKSSEELKKMLSSIRERFPDAVLRTSIIVGFPGETEEDFEELKQFVEEIQFDKLGAFVYSDEEGTVAFNLKEKVDPEMAKRRQEELLLLQAEISNSRLDRFVGKKLKFLVEGKEGKFLVGRTWTEAPEVDGVVFVRGKGKIGDFLEVVIKEHDEYDMWGSVILEHHHHHH", "soluble on expression in E. coli": "soluble"},
      {"sequence": "GPGSMSQQNAVEALLARLQMGDTIPAFQSMGVDRIVSLRKMSEEALSQAVPDPEQRQALMDAIESRGHLQSRRAGPPAGQPHPPRSADADFARGGNDEGRGGYAPRGDRGGRIARGGRGGGRGAGAPNGDDAARVCRHVFTPEGCKYGDKCRYSHDENDRRRAQEVPTGSGMAQRSLERPPPNFKFSIEVEIPTERIKYLLGSQGNNMKFINETCGTYNERFDHVDEKEETFTIRILGGSEEAINKAKEMLLLSAGVKREEEKKDRFQYAVNELDANTHAARLFAACNTKNKDTTRHLSDSIMRNIVSSFHFVRPQEVRHFYMYTSSSDKDKLEMVSKIVSQLKGVQAILFCDQKRVEEMCKGSQRIARHFNGVEPQFVYRQLSKEDRMMALERFKKGVENENGVRQRLLVTNEDYAKLARKTIIPYVNLVINFSVPRAEEYYVLQSQVAGRQGTIGASFLCVSNYEEALFRELEKNIQFERFEDEEHFRTTAVELSYDTTAQPLTPEDADPPADWREHLNDKKPRQNFGKRR", "soluble on expression in E. coli": "soluble"},
      {"sequence": "LKDSYVEYTLLYDTIASRISIDEVEAKDGKLRLMKNVWWEYDKLPHMLIAGGTGGGKTYFILTLIEALLHTDSKLYILDPKNADLADLGSVMANVYYRKEDLLSCIETFYEEMMKRSEEMKQMKNYKTGKNYAYLGLPAHFLIFDEYVAFMEMLGTKENTAVMNKLKQIVMLGRQAGFFLILACQRPDA", "soluble on expression in E. coli": "not soluble"},
      {"sequence": "MARIRARGSIPDINAYTGSNVTLKIHKDPLGPYRRITWLHTKNQKILEYNYNSTKTIFESEFKGRVYLEENNGALHISNVRKEDKGTYYMRVLRETENELKITLEVFDPV", "soluble on expression in E. coli": "soluble"},
      {"sequence": "MGSDKIHHHHHHMMSTIYRHLSTARPALTKYATNAAVKSTTASSEASTLGALQYALSLDEPSHSWTKSQLKEIYHTPLLELTHAAQLQHRKWHDPTKVQLCTLMNIKSGGCSEDCKYCAQSSRNDTGLKAEKMVKVDEVIKEAEEAKRNGSTRFCLGAAWRDMKGRKSAMKRIQEMVTKVNDMGLETCVTLGMVDQDQAKQLKDAGLTAYNHNIDTSREHYSKVITTRTYDDRLQTIKNVQESGIKACTGGILGLGESEDDHIGFIYTLSNMSPHPESLPINRLVAIKGTPMAEELADPKSKKLQFDEILRTIATARIVMPKAIIRLAAGRYTMKETEQFVCFMAGCNSIFTGKKMLTTMCNGWDEDKAMLAKWGLQPMEAFKYDRS", "soluble on expression in E. coli": "not soluble"},
      {"sequence": "MLGYAFPSILGNLMSKIYQMDAVDWLKTLENCSVDLFITDPPYESLEKYRQIGTTTRLKESKSSSNQWFSVFPNTRFEELFREVYRVLKKGSHFYLFCDQETMFLAKPIAESVGFKFWKPIVWDKCAIGMGYHYRARYEFILFFEKGKRKLNDLSVPDVLEYKRVWKGYPTEKPVELLEVLIRQSSSENEIVADSFFGSGSTLIAANNLSRKYIGCDISSSAHEYFKNRA", "soluble on expression in E. coli": "not soluble"},
      {"sequence": "SAALAGVFVWDEERIQEEELQRSINEMKRLEEMSNMFQSSGVQHHPPEPKAQTEGNEDSEGKEQRWEMVMDKKHFKLWRRPITGTHLYQYRVFGTYTDVTPRQFFNVQLDTEYRKKWDALVIKLEVIERDVVSGSEVLHWVTHFPYPMYSRDYVYVRRYSVDQENNMMVLVSRAVEHPSVPESPEFVRVRSYESQMVIRPHKSFDENGFDYLLTYSDNPQTVFPRYCVSWMVSSGMPDFLEKLHMATLKAKNMEIKVKDYISAKPLEMSSEAKATSQSSERKNEGSCGPARIEYA", "soluble on expression in E. coli": "soluble"},
      {"sequence": "MSLGEKSRETSSPWSSTILLVKITSADGLVGYGEAPTTLMTLPVLESMKEVARVFNGKDFFNVERNVFDFYRNSFYLPVSMEATSALSAFEIASWDLIGKQLGTPVYKLLGGEVNQKMRAYANGWYNDCVSPDDFLKKAKEVVKMGFTAMKFDPFGDNYDSITNDGLENARNIVGTLRSELGDKVDLLIEYHGRFSKIAAIKAGMALEEYHPFFYEEPLHPDLDHDLLDLKNYYRVPIALGERVLNKKIFARFISQKLVDIIQPDLTNSGGILEGKKIAAIADGFGIPVAPHNAFGPIQTAATLNLDTTITNFIIQESFEMFWPDWKKKLVSSGYKLENGYFTLTNEPGVCKVNEDIVEKYQVSGMEPFDDKEPPWVVSGTFKPYRQKEGHHHHHH", "soluble on expression in E. coli": "not soluble"},
      {"sequence": "VVVEDSGASFGESLLDTTSEPGKILVKRISGGSGITVTDYGDQVEIEASVTDALSLMYSTSTGGPASIAANALTDFDLSGALTVNSVGTGLTKSAAGIQLAAGKSGLYQITMTVKNNTVTTGNYLLRVKYGSSDFVVACPASSLTAGGTISLLIYCNVLGVVSLDVLKFSLCNDGAALSNYIINITAAKIN", "soluble on expression in E. coli": "soluble"},
      {"sequence": "SPGFSVGVIGDMFLLPNLNLRLLPTLHFGDKQFVFSDGEKPVASFSVRSNYLEFPLLLKYGSRRLNNMRPYLIGGPYWTMELGRKKGLEIYTKANDYGVQIGLGCDFYLPFFKLCPELRFSFGFPDVITHERPDLLDDYKLIYTQSISRARTRMIMLTFNFE", "soluble on expression in E. coli": "not soluble"},
      {"sequence": "MGSSHHHHHHSSGLVPRGSHMKVYYECAPCFLRQAREAIDLATDDEELKLRVMENILELLSERFRRGQVSNELGTRMHRLIKDMTGSEDPYLDEKRRCNEIALRFLPTVRDYLECHSDLESHVKVAITGNIIDFGALGLDFDHDRGIQESLRAPLTINHVPLLEDRLREASEVLYLLDNTGEILFDRPLIEKLAGYDVSVKVAVKGEPILNDACMEDALEAGLDEVAEIVTTGTDSVGIVYSDLSDEFRDMLDGTELVIAKGMGNYEGLTEISDGSRDIFCLLNAKCSAIARDLGVARGDNVAVKI", "soluble on expression in E. coli": "soluble"},
      {"sequence": "MSFNLSVIGAGLPVAQSTTTLIDALRTHRMAVVQAPPGTGKTTLVPPIAHNVTGGRVIVVAPRRVAVRAAAHHLVQLDQSSCDQPSTHRVGYTIRGERSRGDLVEFVTPGVLLRRLISNPELDGVSAVVVDEVHERQLDTDLVLGMLVELRELRDDLTVIAMSAT", "soluble on expression in E. coli": "not soluble"},
      {"sequence": "MGSDKIHHHHHHMTNLLSVRDLSIALCQGQEQRYILEKVTFEIKEGETVALVGESGSGKSVTALSILQLLPFLKTLYQSGEILFNDKDLLKQKEEDLRKVRGKDIAMIFQEPMTALNPLHNVERQIGEVLKMHSDMTNQSLRAHIIDLLTQVGIHEPQKRLGSFPHELSGGQRQRVMIAMALANNPRLLIADEPTTALDVTVQARILELLVHLKKQNNMSMLFITHNLAIVRCIADRVYVMRKGKIVESAPIDQLFANAQKPYTKQLLAAEPKGYPLQADKSAPILMQGKKVRVWFPIKKGLLRRTKGYIKAVQDMDVTIRVGQTLGVVGESGSGKTTLGLSLIRMLSSKGQIIFDDIDISNFTFKKMRSLRRHIQIVFQDPFGSLSPRMSVSEIIAEGLSIHEPKLSYSERNDRVIEALHEVNLDPSTRYRYPHEFSGGQRQRIALARAIILKPRFIMLDEPTSSLDVSVQAQIISLLLHLQKKYHLGYLFISHDLKVIKALAHEVIVMRNGEMVEYGSADRIFSCPQNTYTQSLMAAAFALESDRL", "soluble on expression in E. coli": "not soluble"},
      {"sequence": "MDTPENVLQMLEAHMQSYKGNDPLGEWERYIQWVEENFPENKEYLITLLEHLMKEFLDKKKYHNDPRFISYCLKFAEYNSDLHQFFEFLYNHGIGTLSSPLYIAWAGHLEAQGELQHASAVLQRGIQNQAEPREFLQQQYRLFQTRLTETHLPAQARTSEPLHNVQVLNQMITSKSNPGNNMACISKNQGSELSGVISSACDKESNMERRVITISKSEYSVHSSLASKVDVEQVVMYCKEKLIRGESEFSFEELRAQKYNQRRKHEQWVNEDRHYMKRKEANAFEEQLLKQKMDELHKKLHQVVETSHEDLPASQERSEVNPARMGPSVGSQQELRAPCLPVTYQQTPVNMEKNPREAPPVVPPLANAISAALVSPATSQSIAPPVPLKAQTVTDSMFAVASKDAGCVNKSTHEFKPQSGAEIKEGCETHKVANTSSFHTTPNTSLGMVQATPSKVQPSPTVHTKEALGFIMNMFQAPTLPDISDDKDEWQSLDQNEDAFEAQFQKNVRSSGAWGVNKIISSLSSAFHVFEDGNKENYGLPQPKNKPTGARTFGERSVSRLPSKPKEEVPHAEEFLDDSTVWGIRCNKTLAPSPKSPGDFTSAAQLASTPFHKLPVESVHILEDKENVVAKQCTQATLDSCEENMVVPSRDGKFSPIQEKSPKQALSSHMYSASLLRLSQPAAGGVLTCEAELGVEACRLTDTDAAIAEDPPDAIAGLQAEWMQMSSLGTVDAPNFIVGNPWDDKLIFKLLSGLSKPVSSYPNTFEWQCKLPAIKPKTEFQLGSKLVYVHHLLGEGAFAQVYEATQGDLNDAKNKQKFVLKVQKPANPWEFYIGTQLMERLKPSMQHMFMKFYSAHLFQNGSVLVGELYSYGTLLNAINLYKNTPEKVMPQGLVISFAMRMLYMIEQVHDCEIIHGDIKPDNFILGNGFLEQDDEDDLSAGLALIDLGQSIDMKLFPKGTIFTAKCETSGFQCVEMLSNKPWNYQIDYFGVAATVYCMLFGTYMKVKNEGGECKPEGLFRRLPHLDMWNEFFHVMLNIPDCHHLPSLDLLRQKLKKVFQQHYTNKIRALRNRLIVLLLECKRSRK", "soluble on expression in E. coli": "soluble"},
      {"sequence": "MRYWKNSRIKMFEQEDEWISKTQMKKQMNDLQDLGMALTKLSNDTLKKIGLDADLYEAVTAYKKITSNGALKRQAQFIGRLMRDTDPAPIEAFLAKLRGDDAAHNAFLQRVEQARVRLLADDGALTQFMSDFPHADAGKLRTLIRNTKKEQEQNKPPKNFRALFQELKTVMENGDAEI", "soluble on expression in E. coli": "not soluble"}
    ]}
  ]
}
